Laboratory results as given in patent publication US20120095193A1 (published 2012).

T1: human ADAMTS5 (human, UniProt Q9UNA0 262-622, limits assumed)
T1 construct: Octet and ELISA used 'recombinant human ADAMTS5'; also called recombinant human ADAMTS5; ADAMTS5 (R&D Systems 2198-AD)
T1 sequence: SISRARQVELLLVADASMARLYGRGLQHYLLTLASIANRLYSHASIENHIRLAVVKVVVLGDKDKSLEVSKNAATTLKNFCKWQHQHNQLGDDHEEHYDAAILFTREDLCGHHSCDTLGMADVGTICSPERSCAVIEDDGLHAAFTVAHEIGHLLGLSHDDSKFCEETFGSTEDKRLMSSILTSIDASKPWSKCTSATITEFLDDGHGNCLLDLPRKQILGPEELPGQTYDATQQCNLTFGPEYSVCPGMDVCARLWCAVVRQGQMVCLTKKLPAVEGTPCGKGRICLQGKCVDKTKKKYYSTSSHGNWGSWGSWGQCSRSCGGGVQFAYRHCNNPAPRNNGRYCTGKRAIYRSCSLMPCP

B1: BPC1656 (antibody, human IgG1, kappa, V domains shown)
VH: EVQLLESGGGLVQPGGSLRLSCAASGFTFSDAWMDWVRQAPGKGLEWVSEIRHKANDHAIFYDESVKGRFTISRDNSKNTLYLQMNSLRAEDTAVYYCTSPFAYWGQGTLVTVSS
VL: DIQMTQSPSSLSASVGDRVTITCKASQSVGTTIVWYQQKPGKAPKLLIYSASNRHTGVPSRFSGSGSGTDFTLTISSLQPEDFATYYCQQYTSYPFTFGQGTKLEIKR
notes: Humanized, human gamma 1 / kappa; also called 12F4 H1L0
B2: BPC1657 (antibody, human IgG1, kappa, V domains shown)
VH: EVQLLESGGGLVQPGGSLRLSCAASGFTFSDAWMDWVRQAPGKGLEWVSEIRHKANDHAIFYDESVKGRFTISRDDSKNTLYLQMNSLRAEDTAVYYCTSPFAYWGQGTLVTVSS
VL: DIQMTQSPSSLSASVGDRVTITCKASQSVGTTIVWYQQKPGKAPKLLIYSASNRHTGVPSRFSGSGSGTDFTLTISSLQPEDFATYYCQQYTSYPFTFGQGTKLEIKR
notes: Humanized, human gamma 1 / kappa; also called 12F4 H2L0
B3: BPC1658 (antibody, human IgG1, kappa, V domains shown)
VH: EVQLLESGGGLVQPGGSLRLSCAASGFTFSDAWMDWVRQAPGKGLEWVAEIRHKANDHAIFYDESVKGRFTISRDNSKNTVYLQMNSLRAEDTAVYYCTSPFAYWGQGTLVTVSS
VL: DIQMTQSPSSLSASVGDRVTITCKASQSVGTTIVWYQQKPGKAPKLLIYSASNRHTGVPSRFSGSGSGTDFTLTISSLQPEDFATYYCQQYTSYPFTFGQGTKLEIKR
notes: Humanized, human gamma 1 / kappa; also called 12F4 H3L0
B4: BPC1644 (antibody, human IgG1, kappa, V domains shown)
VH: EVQLVESGGGLVQPGGSLRLSCAASGFTSSDAWMDWVRQAPGKGLEWVAEIRNKANNHARHYAESVKGRFTISRDNAKNSLYLQMNSLRAEDTAVYYCTRTYYYGSSYGYCDVWGQGTLVTVSS
VL: DIQMTQSPSSLSASVGDRVTITCRTSENIYSYLAWYQQKPGKAPKLLVYNAKTLAEGVPSRFSGSGSGTDFTLTISSLQPEDFATYYCQHHYGTPWTFGQGTKLEIKR
notes: Humanized, human gamma 1 / kappa; also called 7B4 H3L1
B5: BPC1635 (antibody, human IgG1, kappa, V domains shown)
VH: EVQLVESGGGLVQPGGSLRLSCAASGFTFSDAWMDWVRQAPGKGLEWVAEIRNKANNHARHYAESVKGRFTISRDNAKNSLYLQMNSLRAEDTAVYYCTRTYYYGSSYGYCDVWGQGTLVTVSS
VL: DIQMTQSPSSLSASVGDRVTITCRTSENIYSYLAWYQQKPGKAPKLLIYNAKTLAEGVPSRFSGSGSGTDFTLTISSLQPEDFATYYCQHHYGTPWTFGQGTKLEIKR
notes: Humanized, human gamma 1 / kappa; also called 7B4 H1L0
B6: BPC1636 (antibody, human IgG1, kappa, V domains shown)
VH: EVQLVESGGGLVQPGGSLRLSCAASGFTSSDAWMDWVRQAPGKGLEWVAEIRNKANNHARHYAESVKGRFTISRDNAKNSLYLQMNSLRAEDTAVYYCARTYYYGSSYGYCDVWGQGTLVTVSS
VL: DIQMTQSPSSLSASVGDRVTITCRTSENIYSYLAWYQQKPGKAPKLLIYNAKTLAEGVPSRFSGSGSGTDFTLTISSLQPEDFATYYCQHHYGTPWTFGQGTKLEIKR
notes: Humanized, human gamma 1 / kappa; also called 7B4 H2L0
B7: BPC1637 (antibody, human IgG1, kappa, V domains shown)
VH: EVQLVESGGGLVQPGGSLRLSCAASGFTSSDAWMDWVRQAPGKGLEWVAEIRNKANNHARHYAESVKGRFTISRDNAKNSLYLQMNSLRAEDTAVYYCTRTYYYGSSYGYCDVWGQGTLVTVSS
VL: DIQMTQSPSSLSASVGDRVTITCRTSENIYSYLAWYQQKPGKAPKLLIYNAKTLAEGVPSRFSGSGSGTDFTLTISSLQPEDFATYYCQHHYGTPWTFGQGTKLEIKR
notes: Humanized, human gamma 1 / kappa; also called 7B4 H3L0
B8: BPC1638 (antibody, human IgG1, kappa, V domains shown)
VH: EVQLVESGGGLVQPGGSLRLSCAASGFTSSDAWMDWVRQAPGKGLEWVAEIRNKANNHARHYAESVKGRFTISRDDAKNSLYLQMNSLRAEDTAVYYCTRTYYYGSSYGYCDVWGQGTLVTVSS
VL: DIQMTQSPSSLSASVGDRVTITCRTSENIYSYLAWYQQKPGKAPKLLIYNAKTLAEGVPSRFSGSGSGTDFTLTISSLQPEDFATYYCQHHYGTPWTFGQGTKLEIKR
notes: Humanized, human gamma 1 / kappa; also called 7B4 H4L0
B9: BPC1639 (antibody, human IgG1, kappa, V domains shown)
VH: EVQLVESGGGLVQPGGSLRLSCAASGFTSSDAWMDWVRQAPGKGLEWVAEIRNKANNHARHYAESVKGRFTISRDNAKNSVYLQMNSLRAEDTAVYYCTRTYYYGSSYGYCDVWGQGTLVTVSS
VL: DIQMTQSPSSLSASVGDRVTITCRTSENIYSYLAWYQQKPGKAPKLLIYNAKTLAEGVPSRFSGSGSGTDFTLTISSLQPEDFATYYCQHHYGTPWTFGQGTKLEIKR
notes: Humanized, human gamma 1 / kappa; also called 7B4 H5L0
B10: BPC1640 (antibody, human IgG1, kappa, V domains shown)
VH: EVQLVESGGGLVQPGGSLRLSCAASGFTSSDAWMDWVRQAPGKGLEWVAEIRNKANNHARHYAESVKGRFTISRDDAKNSVYLQMNSLRAEDTAVYYCTRTYYYGSSYGYCDVWGQGTLVTVSS
VL: DIQMTQSPSSLSASVGDRVTITCRTSENIYSYLAWYQQKPGKAPKLLIYNAKTLAEGVPSRFSGSGSGTDFTLTISSLQPEDFATYYCQHHYGTPWTFGQGTKLEIKR
notes: Humanized, human gamma 1 / kappa; also called 7B4 H6L0
B11: BPC1641 (antibody, human IgG1, kappa, V domains shown)
VH: EVQLVESGGGLVQPGGSLRLSCAASGFTFSDAWMDWVRQAPGKGLEWVAEIRNKANNHARHYAESVKGRFTISRDNAKNSLYLQMNSLRAEDTAVYYCARTYYYGSSYGYCDVWGQGTLVTVSS
VL: DIQMTQSPSSLSASVGDRVTITCRTSENIYSYLAWYQQKPGKAPKLLVYNAKTLAEGVPSRFSGSGSGTDFTLTISSLQPEDFATYYCQHHYGTPWTFGQGTKLEIKR
notes: Humanized, human gamma 1 / kappa; also called 7B4 H0L1
B12: BPC1642 (antibody, human IgG1, kappa, V domains shown)
VH: EVQLVESGGGLVQPGGSLRLSCAASGFTFSDAWMDWVRQAPGKGLEWVAEIRNKANNHARHYAESVKGRFTISRDNAKNSLYLQMNSLRAEDTAVYYCTRTYYYGSSYGYCDVWGQGTLVTVSS
VL: DIQMTQSPSSLSASVGDRVTITCRTSENIYSYLAWYQQKPGKAPKLLVYNAKTLAEGVPSRFSGSGSGTDFTLTISSLQPEDFATYYCQHHYGTPWTFGQGTKLEIKR
notes: Humanized, human gamma 1 / kappa; also called 7B4 H1L1
B13: BPC1643 (antibody, human IgG1, kappa, V domains shown)
VH: EVQLVESGGGLVQPGGSLRLSCAASGFTSSDAWMDWVRQAPGKGLEWVAEIRNKANNHARHYAESVKGRFTISRDNAKNSLYLQMNSLRAEDTAVYYCARTYYYGSSYGYCDVWGQGTLVTVSS
VL: DIQMTQSPSSLSASVGDRVTITCRTSENIYSYLAWYQQKPGKAPKLLVYNAKTLAEGVPSRFSGSGSGTDFTLTISSLQPEDFATYYCQHHYGTPWTFGQGTKLEIKR
notes: Humanized, human gamma 1 / kappa; also called 7B4 H2L1
B14: BPC1645 (antibody, human IgG1, kappa, V domains shown)
VH: EVQLVESGGGLVQPGGSLRLSCAASGFTSSDAWMDWVRQAPGKGLEWVAEIRNKANNHARHYAESVKGRFTISRDDAKNSLYLQMNSLRAEDTAVYYCTRTYYYGSSYGYCDVWGQGTLVTVSS
VL: DIQMTQSPSSLSASVGDRVTITCRTSENIYSYLAWYQQKPGKAPKLLVYNAKTLAEGVPSRFSGSGSGTDFTLTISSLQPEDFATYYCQHHYGTPWTFGQGTKLEIKR
notes: Humanized, human gamma 1 / kappa; also called 7B4 H4L1
B15: BPC1646 (antibody, human IgG1, kappa, V domains shown)
VH: EVQLVESGGGLVQPGGSLRLSCAASGFTSSDAWMDWVRQAPGKGLEWVAEIRNKANNHARHYAESVKGRFTISRDNAKNSVYLQMNSLRAEDTAVYYCTRTYYYGSSYGYCDVWGQGTLVTVSS
VL: DIQMTQSPSSLSASVGDRVTITCRTSENIYSYLAWYQQKPGKAPKLLVYNAKTLAEGVPSRFSGSGSGTDFTLTISSLQPEDFATYYCQHHYGTPWTFGQGTKLEIKR
notes: Humanized, human gamma 1 / kappa; also called 7B4 H5L1
B16: BPC1647 (antibody, human IgG1, kappa, V domains shown)
VH: EVQLVESGGGLVQPGGSLRLSCAASGFTSSDAWMDWVRQAPGKGLEWVAEIRNKANNHARHYAESVKGRFTISRDDAKNSVYLQMNSLRAEDTAVYYCTRTYYYGSSYGYCDVWGQGTLVTVSS
VL: DIQMTQSPSSLSASVGDRVTITCRTSENIYSYLAWYQQKPGKAPKLLVYNAKTLAEGVPSRFSGSGSGTDFTLTISSLQPEDFATYYCQHHYGTPWTFGQGTKLEIKR
notes: Humanized, human gamma 1 / kappa; also called 7B4 H6L1
B17: BPC1648 (antibody, human IgG1, kappa, V domains shown)
VH: EVQLVESGGGLVQPGGSLRLSCAASGFTFSDAWMDWVRQAPGKGLEWVAEIRNKANNHARHYAESVKGRFTISRDNAKNSLYLQMNSLRAEDTAVYYCARTYYYGSSYGYCDVWGQGTLVTVSS
VL: DIQMTQSPSSLSASVGDRVTITCRTSENIYSYLAWYQQKPGKAPQLLVYNAKTLAEGVPSRFSGSGSGTDFTLTISSLQPEDFATYYCQHHYGTPWTFGQGTKLEIKR
notes: Humanized, human gamma 1 / kappa; also called 7B4 H0L2

Molecular target: T1, human ADAMTS5
Assay: Biacore, mAb from culture supernatant captured on anti-human IgG, ADAMTS5 (R&D 2198-AD) at 64 nM, 1:1 fit
Procedure: Anti-human IgG (Biacore™, BR-1008-39) was immobilized on a CM5 chip by primary amine coupling. This surface was then used to capture the humanized antibodies, ADAMTS5 (R&D Systems 2198-AD) was then passed over the captured antibody at a single concentration of 64 nM, regeneration was carried out using 100 mM phosphoric acid followed by 3M MgCl₂. The binding curves were double referenced with buffer injection (i.e. 0 nM) and the data was fitted to the T100 analysis software using the 1:1 model. The run was carried out at 25° C., using HBS-EP as the running buffer. All antibodies were captured from tissue culture supernatants unless specified.

Row | Binder | Kd | koff | kon
1 | B1 | 0.624 nM | 0.000395 s⁻¹ | 633000 M⁻¹ s⁻¹
2 | B2 | 0.129 nM | 7.54e-05 s⁻¹ | 585000 M⁻¹ s⁻¹
3 | B3 | 0.312 nM | 0.00014 s⁻¹ | 448000 M⁻¹ s⁻¹
4 | B4 | 1.05 nM | 0.00157 s⁻¹ | 1.49e+06 M⁻¹ s⁻¹
5 | B5 | 1.17 nM | 0.000826 s⁻¹ | 704000 M⁻¹ s⁻¹
6 | B6 | 0.836 nM | 0.000896 s⁻¹ | 1.07e+06 M⁻¹ s⁻¹
7 | B7 | 0.86 nM | 0.000963 s⁻¹ | 1.12e+06 M⁻¹ s⁻¹
8 | B8 | 0.95 nM | 0.000831 s⁻¹ | 875000 M⁻¹ s⁻¹
9 | B9 | 0.964 nM | 0.000894 s⁻¹ | 927000 M⁻¹ s⁻¹
10 | B10 | 1.08 nM | 0.000849 s⁻¹ | 787000 M⁻¹ s⁻¹
11 | B11 | 1.32 nM | 0.000945 s⁻¹ | 714000 M⁻¹ s⁻¹
12 | B12 | 1.36 nM | 0.00121 s⁻¹ | 887000 M⁻¹ s⁻¹
13 | B13 | 1.05 nM | 0.00143 s⁻¹ | 1.36e+06 M⁻¹ s⁻¹
14 | B14 | 1.04 nM | 0.00116 s⁻¹ | 1.12e+06 M⁻¹ s⁻¹
15 | B15 | 1.03 nM | 0.00184 s⁻¹ | 1.79e+06 M⁻¹ s⁻¹
16 | B16 | 0.978 nM | 0.00145 s⁻¹ | 1.48e+06 M⁻¹ s⁻¹
17 | B17 | 1.21 nM | 0.000951 s⁻¹ | 788000 M⁻¹ s⁻¹
